Results as given in patent US20200181261A1 (Bayer, published 2020).
Where a chain is given by its changes, count along the chain named. One block for each binder: values may come before it.

Experiments:
[1] = molecular target: T1, human CEACAM6, extracellular (mature form), R&D Systems 3934-CM (human, UniProt P40199 35-320); assay: ELISA, antibody captured, biotinylated antigen titrated
T1 construct: used biotinylated in some assays; also called TPP-1436; Recombinant human CEACAM6
T1 sequence: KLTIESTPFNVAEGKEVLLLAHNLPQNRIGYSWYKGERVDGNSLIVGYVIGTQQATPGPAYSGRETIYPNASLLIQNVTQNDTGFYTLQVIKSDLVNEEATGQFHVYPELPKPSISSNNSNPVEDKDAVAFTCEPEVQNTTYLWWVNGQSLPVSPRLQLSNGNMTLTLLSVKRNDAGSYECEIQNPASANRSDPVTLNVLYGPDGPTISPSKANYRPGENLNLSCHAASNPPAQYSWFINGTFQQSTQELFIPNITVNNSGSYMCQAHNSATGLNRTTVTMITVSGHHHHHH
Protocol: (§1) The binding characteristics of these antibodies were also determined by a binding ELISA (monovalent binding, biotinylated CEACAM proteins): A 1:440 dilution of an anti-human IgG (Sigma, 12136) in Coating buffer (Candor) was used to coat black 384-well Maxisorp plates (Nunc) for 1 hour at 37° C. After one wash with PBS/0.05% Tween-20 the plates were blocked with 100% SmartBlock (Candor) for 1 hour at 37° C. After three washes, 2 μg/ml of the relevant antibodies were added to the plate in PBS/0.05% Tween-20/10% SmartBlock. The plates were incubated for 1 hour at room temperature. After three washes dilution series of the relevant biotinylated CEACAM proteins in PBS/0.05% Tween-20/10% SmartBlock were added and the plates were incubated for one hour at room temperature. After three washes 1 μg/ml of Streptavidin-Peroxidase (Sigma, S5512) in PBS/0.05% Tween-20/10% SmartBlock was added and the plates were incubated for 30 minutes at room temperature. After three washes, the plates were developed with Amplex Red (Life Technologies) and fluorescence was read at an emission wavelength of 590 nm. GraphPad Prism 6.0 software was used to calculate EC₅₀ values using four-parameter non-linear curve fit.

[2] = molecular target: T2, Macaca fascicularis CEACAM6, extracellular (mature form), obtained by Factor Xa cleavage of TPP-2443 (Macaca fascicularis); assay: as above
T2 construct: used biotinylated in some assays; also called APP-319; Cynomolgus CEACAM6
T2 chain: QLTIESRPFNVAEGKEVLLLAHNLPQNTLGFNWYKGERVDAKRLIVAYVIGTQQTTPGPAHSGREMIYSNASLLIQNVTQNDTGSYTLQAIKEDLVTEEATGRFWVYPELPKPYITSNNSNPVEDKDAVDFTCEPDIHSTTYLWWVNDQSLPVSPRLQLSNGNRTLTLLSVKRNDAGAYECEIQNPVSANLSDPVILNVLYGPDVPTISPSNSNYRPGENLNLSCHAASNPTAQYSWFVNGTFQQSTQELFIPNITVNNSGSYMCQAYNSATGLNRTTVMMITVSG
Protocol: as §1

[3] = molecular target: T3, Macaca fascicularis CEACAM6-Domain 1, obtained by Factor Xa cleavage of TPP-2452 (Macaca fascicularis); assay: SPR, antibody captured, antigen as analyte
T3 construct: also called APP-325; cynoC6-D1
T3 chain: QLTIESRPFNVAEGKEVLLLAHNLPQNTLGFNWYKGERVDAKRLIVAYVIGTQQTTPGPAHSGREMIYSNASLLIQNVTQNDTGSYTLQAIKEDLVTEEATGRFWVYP

[4] = molecular target: T4, human CEACAM1, extracellular (mature form), R&D Systems 2244-CM (human, UniProt P13688 35-428); assay: ELISA, antibody captured, biotinylated antigen titrated; binding ELISA, biotinylated CEACAM1 titrated up to 2000 ng/ml; ambiguous fit
T4 construct: used biotinylated in some assays; also called TPP-1437; hC1
T4 sequence: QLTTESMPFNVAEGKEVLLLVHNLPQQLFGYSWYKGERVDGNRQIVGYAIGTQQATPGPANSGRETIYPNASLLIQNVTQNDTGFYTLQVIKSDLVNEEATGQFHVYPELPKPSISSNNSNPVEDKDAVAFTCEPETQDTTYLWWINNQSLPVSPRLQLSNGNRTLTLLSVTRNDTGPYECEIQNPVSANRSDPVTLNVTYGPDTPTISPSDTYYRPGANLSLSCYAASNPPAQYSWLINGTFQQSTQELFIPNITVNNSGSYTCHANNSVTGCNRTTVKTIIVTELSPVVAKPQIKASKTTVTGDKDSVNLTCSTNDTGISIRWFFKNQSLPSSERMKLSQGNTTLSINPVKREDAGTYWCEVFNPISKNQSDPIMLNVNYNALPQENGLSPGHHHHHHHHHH

- EC50 [1]: 0.09 nM
- EC50 [2]: 0.07 nM
B1: TPP-3310 (antibody, human IgG2, kappa)
heavy: QVTLRESGPALVKPTQTLTLTCTFSGFSLSTYGIGVGWIRQPPGKALEWLAHIWWNDNKYYSTSLKTRLTISKDTSKNQVVLTMTNMDPVDTATYYCARISLPYFDYWGQGTTLTVSSASTKGPSVFPLAPCSRSTSESTAALGCLVKDYFPEPVTVSWNSGALTSGVHTFPAVLQSSGLYSLSSVVTVPSSNFGTQTYTCNVDHKPSNTKVDKTVERKCCVECPPCPAPPVAGPSVFLFPPKPKDTLMISRTPEVTCVVVDVSHEDPEVQFNWYVDGVEVHNAKTKPREEQFNSTFRVVSVLTVVHQDWLNGKEYKCKVSNKGLPAPIEKTISKTKGQPREPQVYTLPPSREEMTKNQVSLTCLVKGFYPSDIAVEWESNGQPENNYKTTPPMLDSDGSFFLYSKLTVDKSRWQQGNVFSCSVMHEALHNHYTQKSLSLSPG
light: DIQLTQSPSFLSASVGDRVTITCKASQNVGTAVAWYQQKPGKAPKLLIYSASNRYTGVPSRFSGSGSGTEFTLTISSLQPEDFATYYCQQYSSYPLTFGGGTKVEIKRTVAAPSVFIFPPSDEQLKSGTASVVCLLNNFYPREAKVQWKVDNALQSGNSQESVTEQDSKDSTYSLSSTLTLSKADYEKHKVYACEVTHQGLSSPVTKSFNRGEC
notes: humanized from TPP-2971, human IgG2; also called TPP-2971HU1-hIgG2Kappa

- EC50 [1]: 0.09 nM
- EC50 [2]: 0.07 nM
B2: TPP-3714 (antibody, human IgG2, kappa)
heavy: B1 heavy with T113L, L114V
light: B1 light
notes: humanized from TPP-2971, human IgG2; also called TPP-2971HU2-hIgG2Kappa

- Kd [3]: 30 nM
B3: TPP-2971 (antibody, mouse IgG1, V domains shown)
VH: QVTLKESGPGILQPSQTLSLTCSFSGFSLSTYGIGVGWIRQPSGKDLEWLAHIWWNDNKYYNTALKSRLTISKDTSNNQVFLKIASVDTADTATYYCARISLPYFDYWGQGTTLTVSS
VL: DIVMTQSQKFMSTSVGDRVSITCKASQNVGTAVAWYQQKPGQSPKLLIYSASNRYTGVPDRFTGSGSGTDFTLTISNMQSEDLADYFCQQYSSYPLTFGAGTKLELK
notes: murine hybridoma antibody, mouse IgG1; also called 792.15H12C9

- Kd [3]: 42 nM
B4: TPP-3187 (antibody, mouse IgG1, V domains shown)
VH: B3 VH with S30T, D46G
VL: B3 VL with S92N, S93N
notes: murine hybridoma antibody, mouse IgG1; also called 792.15C4F4

- EC50 [1]: 0.18 nM
- fold better binding than to human CEACAM3 (ratio of EC50 values) [1]: ~620 fold
- EC50 [2]: 0.12 nM
- EC50 [4]: > 2 mg/L
B5: TPP-3705 (antibody, human IgG2, kappa, V domains shown)
VH: EVQLVESGGGLVQPGGSLRLSCAASGFTFSLYQMHWVRQAPGKGLEWVSWISFSGGNTGYADSVKGRFTISRDNSKNTLYLQMNSLRAEDTAVYYCARATGYSSPWYLDPWGQGTLVTVSS
VL: DIQMTQSPSSLSASVGDRVTITCQASHEIDNYLNWYQQKPGKAPKLLIYDAYWLKTGVPSRFSGSGSGTDFTLTISSLQPEDIATYYCQGYDDLSVTFGGGTKVDIKR
notes: also called 090E-M007-A09-Mat1-hIgG2-hIgG2Kappa

- EC50 [1]: 0.19 nM
- fold better binding than to human CEACAM3 (ratio of EC50 values) [1]: ~730 fold
- EC50 [2]: 0.11 nM
- EC50 [4]: > 2 mg/L
B6: TPP-3707 (antibody, human IgG2, kappa, V domains shown)
VH: B5 VH
VL: B5 VL with L54S
notes: also called 090E-M007-A09-Mat2-hIgG2-hIgG2Kappa
